Read-outs that look alike come from different tables or passages of the source.
What was measured:
Test in all cases: native MS
native MS [1] = target: the molecule itself
native MS [2] = target: the molecule itself; remark: listed apart in the source
native MS [3] = target: the molecule itself; remark: listed apart in the source
native MS [4] = target: the molecule itself; remark: listed apart in the source
native MS [5] = target: the molecule itself; remark: listed apart in the source
native MS [6] = target: the molecule itself; remark: listed apart in the source

Row | Protein | percent dimer (dimer/monomer ratio) (native MS [1]) | percent dimer (dimer/monomer ratio) (native MS [2]) | percent dimer (dimer/monomer ratio) (native MS [3]) | percent dimer (dimer/monomer ratio) (native MS [4]) | percent dimer (dimer/monomer ratio) (native MS [5]) | stoichiometry N (native MS [5]) | percent dimer (dimer/monomer ratio) (native MS [6])
1 | CtRocCOR (RocCOR construct of the Roco protein from Chlorobium tepidum, a.a. 412-946) (domain or fragment) DNPLESPPPEIVKQGKEAVRQYFQSIEEARSKGEALVHLQEIKVHLIGDGMAGKTSLLKQLIGETFDPKESQTHGLNVVTKQAPNIKGLENDDELKECLFHFWDFGGQEIMHASHQFFMTRSSVYMLLLDSRTDSNKHYWLRHIEKYGGKSPVIVVMNKIDENPSYNIEQKKINERFPAIENRFHRISCKNGDGVESIAKSLKSAVLHPDSIYGTPLAPSWIKVKEKLVEATTAQRYLNRTEVEKICNDSGITDPGERKTLLGYLNNLGIVLYFEALDLSEIYVLDPHWVTIGVYRIINSSKTKNGHLNTSALGYILNEEQIRCDEYDPAKNNKFTYTLLEQRYLLDIMKQFELCYDEGKGLFIIPSNLPTQIDNEPEITEGEPLRFIMKYDYLPSTIIPRLMIAMQHQILDRMQWRYGMVLKSQDHEGALAKVVAETKDSTITIAIQGEPRCKREYLSIIWYEIKKINANFTNLDVKEFIPLPGHPDELVEYKELLGLEKMGRDEYVSGKLEKVFSVSKMLDSVISKEERNKER | ~38% | ~90% | ~87% | ~20% | ~97% | 2 | ~26%
2 | CtRocCOR L487A mutant (domain or fragment) DNPLESPPPEIVKQGKEAVRQYFQSIEEARSKGEALVHLQEIKVHLIGDGMAGKTSLLKQLIGETFDPKESQTHGANVVTKQAPNIKGLENDDELKECLFHFWDFGGQEIMHASHQFFMTRSSVYMLLLDSRTDSNKHYWLRHIEKYGGKSPVIVVMNKIDENPSYNIEQKKINERFPAIENRFHRISCKNGDGVESIAKSLKSAVLHPDSIYGTPLAPSWIKVKEKLVEATTAQRYLNRTEVEKICNDSGITDPGERKTLLGYLNNLGIVLYFEALDLSEIYVLDPHWVTIGVYRIINSSKTKNGHLNTSALGYILNEEQIRCDEYDPAKNNKFTYTLLEQRYLLDIMKQFELCYDEGKGLFIIPSNLPTQIDNEPEITEGEPLRFIMKYDYLPSTIIPRLMIAMQHQILDRMQWRYGMVLKSQDHEGALAKVVAETKDSTITIAIQGEPRCKREYLSIIWYEIKKINANFTNLDVKEFIPLPGHPDELVEYKELLGLEKMGRDEYVSGKLEKVFSVSKMLDSVISKEERNKER | ~85% | ~100% |  | ~11% |  |  | ~96%

From publication PMC7135905 (Biochemical Journal, 2020)
